These results are taken from the supplement of paper PMC9112550, “Optimization of the antimicrobial peptide Bac7 by deep mutational scanning” (BMC Biology, 2022).
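Also: peptides expressed intracellularly from a pBAD plasmid library in pooled LB shake-flask culture, induced with 0.3% L-arabinose, DNA abundance read by NGS, three biological replicates, DESeq2 with apeglm shrinkage.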

The data set deals with Escherichia coli TOP10. As to the kind of experiment: shrunken log2 fold change of peptide-encoding DNA abundance (4.5 h post-induction vs induction); higher = less antimicrobial activity (less host growth inhibition). To be noted: time post-induction: 4.5 h; library: site-saturation at positions 5, 18, 19, 20.
With RRIRNRPPRLPRPRPRPRMEPRP, the “shrunken log2 fold change” value is -0.0307. As for RRIRMRPPRLPRPRPRPKAHPRP, the “shrunken log2 fold change” value was 0.892. In the case of RRIRCRPPRLPRPRPRPPIQPRP it was 0.369; in that of RRIRDRPPRLPRPRPRPVCIPRP, 0.0226. Take RRIRQRPPRLPRPRPRPAYFPRP: the “shrunken log2 fold change” value came to 0.191.

Take RRIRMRPPRLPRPRPRPMFMPRP: the “shrunken log2 fold change” value was determined as 0.0101. In the case of RRIRSRPPRLPRPRPRPTNTPRP it was 0.0794. The result for RRIRYRPPRLPRPRPRPVNQPRP reads -0.058; that for RRIRCRPPRLPRPRPRPLRMPRP, 0.461. In the case of RRIRNRPPRLPRPRPRPSTTPRP it was -0.47; in that of RRIRKRPPRLPRPRPRPEHMPRP, 0.829; in that of RRIRSRPPRLPRPRPRPHCDPRP, -0.38.

As to RRIRPRPPRLPRPRPRPSDCPRP, the “shrunken log2 fold change” value is -0.0743. As for RRIRNRPPRLPRPRPRPPISPRP, the “shrunken log2 fold change” value was found to be 0.129.

As for RRIRERPPRLPRPRPRPEWHPRP, the “shrunken log2 fold change” value was found to be 0.0244. The result for RRIRARPPRLPRPRPRPARQPRP reads 0.766. For RRIRIRPPRLPRPRPRPQLSPRP, the “shrunken log2 fold change” value was -0.565. In the case of RRIRQRPPRLPRPRPRPKWLPRP it was 0.0992; in that of RRIRWRPPRLPRPRPRPEVVPRP, -0.0122; in that of RRIRDRPPRLPRPRPRPFDYPRP, -0.224.

For the sequence RRIRCRPPRLPRPRPRPPHNPRP, the “shrunken log2 fold change” value worked out at 0.919.

As for RRIRARPPRLPRPRPRPVTTPRP, the “shrunken log2 fold change” value came out at 0.342. In the case of RRIRLRPPRLPRPRPRPHQTPRP it was 0.001; in that of RRIRSRPPRLPRPRPRPSPAPRP, 0.242; in that of RRIRQRPPRLPRPRPRPTASPRP, -0.0116. In the case of RRIRHRPPRLPRPRPRPGCWPRP it was 0.434.

With RRIRIRPPRLPRPRPRPYSTPRP, the “shrunken log2 fold change” value is -1.85. In the case of RRIRARPPRLPRPRPRPNVYPRP it was -0.115; in that of RRIRARPPRLPRPRPRPINFPRP, 0.0601. In the case of RRIRFRPPRLPRPRPRPGRHPRP it was 0.0867; in that of RRIRLRPPRLPRPRPRPRPHPRP, 0.364. In the case of RRIRTRPPRLPRPRPRPRPFPRP it was 0.114; in that of RRIRDRPPRLPRPRPRPGIAPRP, 0.37; in that of RRIRRRPPRLPRPRPRPQACPRP, 0.0222. For RRIRPRPPRLPRPRPRPLTRPRP, the “shrunken log2 fold change” value turned out to be 0.103. In the case of RRIRVRPPRLPRPRPRPEVWPRP it was 0.405; in that of RRIRARPPRLPRPRPRPTKEPRP, 0.0091; in that of RRIRCRPPRLPRPRPRPCMLPRP, -0.758. In the case of RRIRKRPPRLPRPRPRPCVGPRP it was 0.334; in that of RRIRNRPPRLPRPRPRPVAGPRP, -0.124; in that of RRIRYRPPRLPRPRPRPLGHPRP, 0.0209. In the case of RRIRPRPPRLPRPRPRPRMRPRP it was 0.92. RRIRERPPRLPRPRPRPCEMPRP: the “shrunken log2 fold change” value stood at 0.118. The result for RRIRLRPPRLPRPRPRPYENPRP reads -0.0259. The result for RRIRDRPPRLPRPRPRPIWSPRP reads -0.0288; that for RRIRIRPPRLPRPRPRPSYMPRP, -1.53. Consider RRIRDRPPRLPRPRPRPLGQPRP, for which the “shrunken log2 fold change” value is 0.0401. In the case of RRIRCRPPRLPRPRPRPHDKPRP it was -0.363; in that of RRIRYRPPRLPRPRPRPVQYPRP, -0.0125; in that of RRIRQRPPRLPRPRPRPTFFPRP, -0.0813. In the case of RRIRRRPPRLPRPRPRPLEWPRP it was 0.266. As for RRIRPRPPRLPRPRPRPPTDPRP, the “shrunken log2 fold change” value was 0.184. For RRIRSRPPRLPRPRPRPKGFPRP, the “shrunken log2 fold change” value amounted to 0.158. The result for RRIRGRPPRLPRPRPRPHQAPRP reads 0.354; that for RRIRQRPPRLPRPRPRPEYSPRP, -0.191; that for RRIRHRPPRLPRPRPRPWPIPRP, -0.00691. RRIRYRPPRLPRPRPRPQVYPRP: the “shrunken log2 fold change” value is -0.169.

As for RRIRWRPPRLPRPRPRPHLTPRP, the “shrunken log2 fold change” value is -0.19. The result for RRIRCRPPRLPRPRPRPCITPRP reads -0.0767; that for RRIRLRPPRLPRPRPRPGHDPRP, 0.147; that for RRIRIRPPRLPRPRPRPNAMPRP, -0.0812. In the case of RRIRKRPPRLPRPRPRPKILPRP it was 0.362; in that of RRIRSRPPRLPRPRPRPHNAPRP, -0.197; in that of RRIRYRPPRLPRPRPRPAGAPRP, 0.421.

For the sequence RRIRSRPPRLPRPRPRPFIRPRP, the “shrunken log2 fold change” value is -0.412.

On to RRIRYRPPRLPRPRPRPSWRPRP, for which the “shrunken log2 fold change” value is -0.137. The result for RRIRCRPPRLPRPRPRPKRHPRP reads 0.341; that for RRIRWRPPRLPRPRPRPLDRPRP, 0.146. The result for RRIRDRPPRLPRPRPRPHEHPRP reads 0.00488. Turning to RRIRIRPPRLPRPRPRPKPHPRP, the “shrunken log2 fold change” value is -0.0472. The result for RRIRNRPPRLPRPRPRPMDMPRP reads -0.235; that for RRIRSRPPRLPRPRPRPILAPRP, -0.162. The result for RRIRARPPRLPRPRPRPWHLPRP reads -0.0312; that for RRIRYRPPRLPRPRPRPAKEPRP, 0.0142. In the case of RRIRGRPPRLPRPRPRPKDMPRP it was 0.213; in that of RRIRNRPPRLPRPRPRPLWGPRP, -0.192; in that of RRIRTRPPRLPRPRPRPENFPRP, -0.0131. On to RRIRRRPPRLPRPRPRPDRQPRP, for which the “shrunken log2 fold change” value was -0.114. Consider RRIRVRPPRLPRPRPRPPILPRP, for which the “shrunken log2 fold change” value was -0.313. In the case of RRIRIRPPRLPRPRPRPLPNPRP it was -0.217; in that of RRIRIRPPRLPRPRPRPAAWPRP, 0.112; in that of RRIRHRPPRLPRPRPRPKIMPRP, -0.811. The result for RRIRYRPPRLPRPRPRPNLPPRP reads -0.479; that for RRIRQRPPRLPRPRPRPHDEPRP, -0.158. In the case of RRIRQRPPRLPRPRPRPNHVPRP it was 0.0349; in that of RRIRFRPPRLPRPRPRPGFHPRP, -0.416. For the sequence RRIRCRPPRLPRPRPRPEQTPRP, the “shrunken log2 fold change” value amounted to 0.0662. With RRIRPRPPRLPRPRPRPLGVPRP, the “shrunken log2 fold change” value was determined as 0.361.

Turning to RRIRERPPRLPRPRPRPYIYPRP, the “shrunken log2 fold change” value is -0.254. The result for RRIRHRPPRLPRPRPRPPQCPRP reads 0.178; that for RRIRIRPPRLPRPRPRPSKYPRP, -1.12; that for RRIRCRPPRLPRPRPRPGCEPRP, 0.159. In the case of RRIRTRPPRLPRPRPRPCIMPRP it was -0.2. In the case of RRIRCRPPRLPRPRPRPEKVPRP it was 0.0187; in that of RRIRTRPPRLPRPRPRPAWQPRP, -0.0092; in that of RRIRQRPPRLPRPRPRPRDRPRP, 0.399. With RRIRFRPPRLPRPRPRPGPMPRP, the “shrunken log2 fold change” value turned out to be 0.104. RRIRDRPPRLPRPRPRPLEHPRP: the “shrunken log2 fold change” value is -0.164. In the case of RRIRCRPPRLPRPRPRPTWAPRP it was 0.118. In the case of RRIRSRPPRLPRPRPRPSANPRP it was -0.0142.

With RRIRVRPPRLPRPRPRPTLKPRP, the “shrunken log2 fold change” value is 0.151. In the case of RRIRSRPPRLPRPRPRPVEPPRP it was -0.0608; in that of RRIRKRPPRLPRPRPRPPKVPRP, 0.613; in that of RRIRMRPPRLPRPRPRPYNYPRP, -0.2. As for RRIRFRPPRLPRPRPRPLWLPRP, the “shrunken log2 fold change” value is -0.0557.

For the sequence RRIRERPPRLPRPRPRPSCHPRP, the “shrunken log2 fold change” value is -0.934. In the case of RRIRYRPPRLPRPRPRPCFKPRP, the “shrunken log2 fold change” value was -0.328. The result for RRIRPRPPRLPRPRPRPATGPRP reads 0.0771. The result for RRIRQRPPRLPRPRPRPYSKPRP reads -0.119. The result for RRIRFRPPRLPRPRPRPSAVPRP reads -0.119. RRIRFRPPRLPRPRPRPIAHPRP: the “shrunken log2 fold change” value is -0.109. The result for RRIRARPPRLPRPRPRPEDPPRP reads 0.823; that for RRIRVRPPRLPRPRPRPIDIPRP, -0.11. The result for RRIRMRPPRLPRPRPRPVYCPRP reads 0.00982; that for RRIRYRPPRLPRPRPRPAIKPRP, -0.411. The result for RRIRERPPRLPRPRPRPKNMPRP reads -0.479; that for RRIRMRPPRLPRPRPRPWYAPRP, -0.475; that for RRIRGRPPRLPRPRPRPRGTPRP, 1.16. As to RRIRARPPRLPRPRPRPWCEPRP, the “shrunken log2 fold change” value worked out at 0.404. In the case of RRIRERPPRLPRPRPRPCQYPRP it was -0.138; in that of RRIRTRPPRLPRPRPRPCTWPRP, -0.0134; in that of RRIRFRPPRLPRPRPRPANLPRP, -0.296. The result for RRIRARPPRLPRPRPRPGICPRP reads 0.182; that for RRIRGRPPRLPRPRPRPWPPPRP, 0.663.

With RRIRWRPPRLPRPRPRPTQCPRP, the “shrunken log2 fold change” value amounted to 0.115.
